The values below come from patent publication US20210253725A1 (BIONTECH, published 2021).

Where a chain is given by its changes, count along the chain named. In names and notes the source's numbering stands.

To fix the notation:
T1: CD27 expressed on the cell surface (HT1080_CD27 cells) (human, UniProt P26842 20-260)
T1 construct: whole, on cells; also called K562_CD27
T1 sequence (looked up): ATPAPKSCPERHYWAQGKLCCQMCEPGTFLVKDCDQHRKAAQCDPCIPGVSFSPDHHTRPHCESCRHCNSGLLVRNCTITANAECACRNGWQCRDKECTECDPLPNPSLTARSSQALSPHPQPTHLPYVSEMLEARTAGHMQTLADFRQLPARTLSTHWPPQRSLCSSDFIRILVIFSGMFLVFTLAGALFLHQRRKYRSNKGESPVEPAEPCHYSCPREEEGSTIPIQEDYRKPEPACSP

T2: CD27 protein (His-tagged, Sino Biological Inc. 10039-H08B1) (human, UniProt P26842 20-192)
T2 construct: bought; coated onto ELISA plates; also called human CD27; recombinant protein; not shown: His tag
T2 sequence (looked up): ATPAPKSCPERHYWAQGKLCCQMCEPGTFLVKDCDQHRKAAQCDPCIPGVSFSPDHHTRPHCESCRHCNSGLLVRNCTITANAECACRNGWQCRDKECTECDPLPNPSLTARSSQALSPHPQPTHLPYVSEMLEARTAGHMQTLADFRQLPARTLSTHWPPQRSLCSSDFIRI

B1: P018.S.05.A.F02 (antibody, V domains shown)
VH: QSVEESGGRLVTPGTPLTLTCTVSGFSLNNYGITWVRQAPGKGLEYIGYINYGGIAYYASWVNGRFTISKTSTTVDLKMTSLTAADTATYFCARGYGYYSAGNLWGQGTLVTVSS
VL: AQVLTQTPSPVSAAVGGTVTINCQASQSVYDNNYLSWYQQKPGQPPKRLIYDASSLASGVPSRFSGSGSGTQFTLTISGVQSDDAATYYCAGEYSCLSDDCIAFGGGTEVVVK
notes: V regions on human Ig constant parts; also called AB27_91
B2: P018.S.01.A.H02 (antibody, V domains shown)
VH: QSVEESGGRLVTPGTPLTLTCTASGFSLSSYHMQWVRQAPGKGLEWIGIIYAGSGNTWYASWAKGRFTISKTSTTVDLKITSPTTEDTAAYFCARQPGGDASDTQLDLWGQGTLVTVSS
VL: AAVLTQTASPVSAAVGGTVTINCQSSQSVFDHNQLSWFQHKPGQSPKLLIYRASTLASGVPSRFKGSGSGTQFTLTISDVQSDDAATYYCLGGYSSSSDTVFGGGTEVVVK
notes: V regions on human Ig constant parts; also called AB27_25
B3: P018.S.07.A.C02 (antibody, V domains shown)
VH: B2 VH with Q34C, A90T, D100G
VL: B2 VL with A8P, H32N, V80L, Q81E, K111E
notes: V regions on human Ig constant parts; also called AB27_119
B4: P018.S.10.A.C06 (antibody, V domains shown)
VH: QSLEESGGRLVTPGTPLTLTCTVSGIDLNNNAMTWVRQAPGEGLEWIGIISTADTTTYASWTKGRFTISKTSTTVDLKITSPTTEDTATYFCARAAYFSYGYFNLWGQGTLVTVSS
VL: DIVMTQTPASVEAAVGGTVTIKCQASQNIGNALAWYQQKPGQPPKLLIYGASTLASGVPSRFKGSGSGTEFTLTISDLESADATTYFCQSYVYSDGNVFGGGTEVVVK
notes: V regions on human Ig constant parts; also called AB27_174
B5: P018.S.06.A.E02 (antibody, V domains shown)
VH: B4 VH with T57S
VL: B4 VL with P40S
notes: V regions on human Ig constant parts; also called AB27_105
B6: P018.S.07.A.C06 (antibody, V domains shown)
VH: QSVEESGGRLVTPGTPLTLTCTVSGFSLNHYHMCWVRQAPGKGLEYIGRIDNSGYIVYASWAKGRFTISKTSTTVDLKITSPTTADTATYFCGKYYSGGSYDLWGQGTLVTVSS
VL: AQVLTQTASSVSAAVGGTVTISCQSSQSVWNNNWLAWYQQKPGQPPKLLIYETSKLASGVPSRFKGSGSGTQFTLTISGVQSDDAATYYCQGEFSCSSDDCNAFGGGTEVVVK
notes: V regions on human Ig constant parts; also called AB27_121
B7: P018.S.04.A.A05 (antibody, V domains shown)
VH: QSLEESGGRLVTPGTPLTLTCTASGFTISSYEMGWVRQAPGEGLEYIGWIASGGSTFYASWAKGRFTISRTSTTVDLTITDLRPSDTGTYFCARGYVEFKLWGPGTLVTVSS
VL: DIVMTQTPASVSESVGGTVTIKCQASQSIGSYLSWYQQKPGQPPKVLIYRASTLESGVPSRFEGSGSGTQFTLTISDLESADAATYYCQGYHSTSGYVAFGGGTELVVK
notes: V regions on human Ig constant parts; also called AB27_65
B8: P018.S.05.A.A04 (antibody, V domains shown)
VH: QEQLVESGGDLVKPGASLTLTCTASGIDFSSSYYMSWVRQAPGKGLEWIACIDTVDDYTYYASWAKGRFTISKTSSTTVSLQMTSLTAADTATYFCARERIDNNTDCFDLWGPGTLVTISS
VL: AQVLTQTPSPVSAAVGGTVTISCQSSQSVVSKNRLAWYQQKPGQPPKLLIWLASKLASGVPSRFRGSGSGTQFTLTISGVQSDDAATYYCQGYYSGAIYAFGGGTDVVVK
notes: V regions on human Ig constant parts; also called AB27_81
B9: P018.S.01.A.C06 (antibody, V domains shown)
VH: QSVEESGGRLVTPGTPLTLTCTVSGIDLNNYVMGWVRQAPGKGLEWIGIINTAGSTYYANWAKGRFTISKTSTTVDLKITSPTTEDTATYFCARDSSYYIGYYFNLWGPGTLVTVSS
VL: QIVMTQTPASVEVAVGGTVTIKCQASQSIGSNLAWYQQKPGQPPKLLIYDASDLESGVPSRFKGSGSGAQFTLTISDLESADAATYYCQQGYSATTNVDNAFGGGTEVVVK
notes: V regions on human Ig constant parts; also called AB27_10
B10: P018.S.10.A.E01 (antibody, V domains shown)
VH: QEQLVESGGGLVQPEGSLTLTCTATGIDFSTNYRSCWVRQAPGKGLEWIACIDTDDSDSTYYASWAKGRFTISKTSSTTVTLQMTSLTAADTATYFCTRAYTTSDYAWSFYLWGPGTLVTVSS
VL: DLVMTQTPASVEAAVGGTVTIKCQTSQSISKFLNWYQQTPGQPPKLLIYRASTLESGVPSRFEGSGSGTEFTLTISDLESADAATYYCQCTYGGTSGSVWAFGGGTEVVVK
notes: V regions on human Ig constant parts; also called AB27_175
B11: P018.S.09.A.E06 (antibody, V domains shown)
VH: QSVEESGGRLVTPGTPLTLTCTVSGFSLSSYGMIWVRQAPGKGLEWIAWSSSNDNTYYASWAKGRFTISKTSSTTVDLKMTSLTTEDTATYFCARNGVYSTGNYFDLWGQGTLVTVSS
VL: AQVLTQTPSPVSAAVGGTVTINCQASQSVYNNNNLAWYQQKPGQPPKFLIYAASRLPSGVPPRFSGSGSGTQFTLTISDVQSDDAATYYCQGEFDCDSADCFAFGGGTEVVVK
notes: V regions on human Ig constant parts; also called AB27_156
B12: P018.S.09.A.C03 (antibody, V domains shown)
VH: QSVEESGGRLVTPGTPLTLTCTVSGFSLSSYGMIWVRQAPGKGLEWIGWISSNDNKYYARWAKGRFTISKTSTTVDLKMTSLTTEDTATYFCVRNGVYNTGNYFDLWGQGTLVTVSS
VL: B11 VL with P10S, V29L, N33K, A52T, R55S, P57A, P61S, P62S, S65K, A99D
notes: V regions on human Ig constant parts; also called AB27_148
B13: P018.S.01.A.B03 (antibody, V domains shown)
VH: QSLEESGGRLVTPGTPLTLTCTVSGFSLSSNAMSWVRQAPGEGLEWIGTIYTHGSSYYATWAKGRFTISKTSSTTVDLKMTSLTTEDTATYFCAGWAGGLSLWGPGTLVTVSS
VL: DVVMTQTPASVSEPVGGTVTIKCQASEDIDNALAWYQQKPGQAPKILIYSASTLPSGVPSRFKGSGSGTQFTLTISDLESADAATYYCQSAYGGTYGDGFGGGTEVVVK
notes: V regions on human Ig constant parts; also called AB27_4
B14: P018.S.03.A.E04 (antibody, V domains shown)
VH: QEQLKESGGGLVTPGGTLTLTCTVSGIDLSSYAISWVRQAPGKGLEWIGYIYVGSTTTWYASWVKGRSTISKTSSTTVDLKMTSLTTEDTATYFCARAYDSGYIGNSFYIFHPWGPGTLVTVSS
VL: DIVMTQTPASVSATVGGTVTIKCQASQTISSRLAWYQQKPGQPPKLLIYSASTLASGVSSRFKGSGSGTEFTLTISDLESADGATYYCAGYGGLGITAFGGGTEVVVK
notes: V regions on human Ig constant parts; also called AB27_52
B15: P018.S.05.A.A02 (antibody, V domains shown)
VH: QSLEESGGRLVTPGTPLTLICTASGIDLSSYGMTWVRQAPGKGLEWIGIISTIGDTYYASWVKGRFTISKTSTTVDLKITSPTTEDTATYFCARYTNSGYAMMYYFNLWGQGTLVTVSS
VL: DIVMTQTPASVEAAVGGTVTIKCQASQNIVNALAWYQQKLGQPPKLLIYVASYLASGVPSRFKGSGSGTEFTLTISDLESVDAATYYCQSYYYSSGTSYGQNAFGGGTEVVVK
notes: V regions on human Ig constant parts; also called AB27_80
Further: test concentration or dose not given here.

One experiment addresses T1, CD27 expressed on the cell surface …. Kind of experiment: cellular binding assay, HT1080_CD27 cells.
Take B1: the “Cellular binding assay [RFU]” value is 472 RFU.

Consider B2, for which the “Cellular binding assay [RFU]” value is 317 RFU.

As for B3, the “Cellular binding assay [RFU]” value amounted to 380 RFU.

B4: the “Cellular binding assay [RFU]” value stood at 395 RFU.

With B5, the “Cellular binding assay [RFU]” value was found to be 357 RFU.

With B6, the “Cellular binding assay [RFU]” value was determined as 336 RFU.

Turning to B7, the “Cellular binding assay [RFU]” value stood at 206 RFU.

In the case of B8, the “Cellular binding assay [RFU]” value came to 369 RFU.

Consider B9, for which the “Cellular binding assay [RFU]” value worked out at 369 RFU.

Consider B10, for which the “Cellular binding assay [RFU]” value is 227 RFU.

As for B11, the “Cellular binding assay [RFU]” value amounted to 307 RFU.

On to B12, for which the “Cellular binding assay [RFU]” value came to 319 RFU.

As to B13, the “Cellular binding assay [RFU]” value was 387 RFU.

For B14, the “Cellular binding assay [RFU]” value worked out at 356 RFU.

Consider B15, for which the “Cellular binding assay [RFU]” value was found to be 334 RFU.

In the next experiment the target is T2, CD27 protein (His-tagged, Sino …). The experiment in a line: ELISA on coated His-tagged CD27. For orientation: An ELISA detects its analyte on a solid surface through an enzyme-linked reagent.
Take B1: the “ELISA [abs. corr.]” value turned out to be 3.29 abs. corr.

As to B2, the “ELISA [abs. corr.]” value was found to be 3.3 abs. corr.

Regarding B3, the “ELISA [abs. corr.]” value turned out to be 3.13 abs. corr.

Take B4: the “ELISA [abs. corr.]” value is 3.39 abs. corr.

Take B5: the “ELISA [abs. corr.]” value was 3.3 abs. corr.

Turning to B6, the “ELISA [abs. corr.]” value was 3.29 abs. corr.

Consider B7, for which the “ELISA [abs. corr.]” value stood at 3.29 abs. corr.

With B8, the “ELISA [abs. corr.]” value turned out to be 3.3 abs. corr.

For the molecule B9, the “ELISA [abs. corr.]” value was determined as 3.3 abs. corr.

In the case of B10, the “ELISA [abs. corr.]” value came out at 3.3 abs. corr.

Consider B11, for which the “ELISA [abs. corr.]” value was found to be 3.54 abs. corr.

In the case of B12, the “ELISA [abs. corr.]” value amounted to 3.53 abs. corr.

As to B13, the “ELISA [abs. corr.]” value turned out to be 3.3 abs. corr.

For B14, the “ELISA [abs. corr.]” value came out at 3.29 abs. corr.

In the case of B15, the “ELISA [abs. corr.]” value turned out to be 3.3 abs. corr.

The target of a further experiment is T1, CD27 expressed on the cell surface …. Kind of experiment: cell-based or functional assay.
As for B1, the “IL-8, cross-linked by F(ab')2 fragment [abs. corr.]” value (“IL-8, cross-linked” for short) came to 1.91 abs. corr and the “IL-8 [abs. corr.]” value was determined as 0.526 abs. corr.

Regarding B2, the “IL-8, cross-linked” value was determined as 2.54 abs. corr and the “IL-8 [abs. corr.]” value is 0.3 abs. corr.

In the case of B3, the “IL-8, cross-linked” value stood at 2.02 abs. corr and the “IL-8 [abs. corr.]” value stood at 0.735 abs. corr.

Take B4: the “IL-8, cross-linked” value came out at 1.18 abs. corr and the “IL-8 [abs. corr.]” value worked out at 0.28 abs. corr.

On to B5, for which the “IL-8, cross-linked” value turned out to be 1.22 abs. corr and the “IL-8 [abs. corr.]” value came to 0.582 abs. corr.

Regarding B6, the “IL-8, cross-linked” value amounted to 1.04 abs. corr and the “IL-8 [abs. corr.]” value was found to be 0.408 abs. corr.

Take B7: the “IL-8, cross-linked” value is 2.24 abs. corr and the “IL-8 [abs. corr.]” value was 1.67 abs. corr.

With B8, the “IL-8, cross-linked” value worked out at 1.37 abs. corr and the “IL-8 [abs. corr.]” value was 0.226 abs. corr.

In the case of B9, the “IL-8, cross-linked” value was 1.79 abs. corr and the “IL-8 [abs. corr.]” value amounted to 0.325 abs. corr.

As for B10, the “IL-8, cross-linked” value came out at 2.54 abs. corr and the “IL-8 [abs. corr.]” value was found to be 0.257 abs. corr.

For the molecule B11, the “IL-8, cross-linked” value turned out to be 1.73 abs. corr and the “IL-8 [abs. corr.]” value was 1.23 abs. corr.

Turning to B12, the “IL-8, cross-linked” value is 2.25 abs. corr and the “IL-8 [abs. corr.]” value came to 0.464 abs. corr.

For the molecule B13, the “IL-8, cross-linked” value was 1.7 abs. corr and the “IL-8 [abs. corr.]” value was found to be 0.06 abs. corr.

Consider B14, for which the “IL-8, cross-linked” value came to 1.19 abs. corr and the “IL-8 [abs. corr.]” value turned out to be 0.2 abs. corr.

Turning to B15, the “IL-8, cross-linked” value was found to be 1.53 abs. corr and the “IL-8 [abs. corr.]” value worked out at 0.212 abs. corr.
